This is an account of results in patent publication US20160046671A1.

Bridges are numbered along the chain shown (N, C = ends). Where no end group is shown, it is not given here. [ ]: non-standard residue; d: D form. S5 = C=CCCC[C@](C)(N)C(=O)O

The target in this experiment is Wild-type human KRAS protein, N-terminal His6-tag fusion (human), P01116. As to the kind of experiment: fluorescence polarization. The following applies: modification not given. (In fluorescence polarisation assays a small probe gives low polarisation when free and higher when bound to something large.)

B1: SAH-SOS A2 (peptide)
chain: RRF[S5]GIY[S5]TNILKTEEGN
modifications: staple 4-8
Molecule B1 showed a Kd of 21 nM.

A word on the Kd: it is the free concentration of one partner at which half of the binding sites on the other are occupied at equilibrium, for simple one-to-one binding. High values mean a looser complex, low ones a tighter complex.
